Results: US20240317826A1, “COMPOSITIONS AND METHODS FOR TREATING AND/OR I[…] AGENT FOR TREATING HIV-1 INFECTIONS” (priority 2021, published 2024)

Experiments:
[1] = molecular target: GST-CTD (C-terminal domain of HIV-1 integrase, aa 201-288, GST fusion) (HIV-1 (Hx3B)) (UniProt P04585); assay: Alpha; GST-CTD 0.027 uM
[2] = molecular target: GST-CTD (C-terminal domain of HIV-1 integrase, aa 201-288, GST fusion) (HIV-1 (Hx3B)) (UniProt P04585); assay: Alpha; GST-CTD 0.083 uM
[3] = molecular target: GST-INI1 (UniProt Q12824); assay: GST pull-down, bound protein quantitated from Western blot (FIG. 15c)
[4] = molecular target: GST-SAP18 (UniProt O00422); assay: as above
Sequence of GST-SAP18 (O00422 whole entry): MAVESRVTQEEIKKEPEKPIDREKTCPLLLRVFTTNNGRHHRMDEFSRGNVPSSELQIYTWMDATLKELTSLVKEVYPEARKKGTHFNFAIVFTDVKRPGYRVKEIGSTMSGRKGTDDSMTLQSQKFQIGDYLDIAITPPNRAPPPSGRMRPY

Substance | Kd [1] | Kd [2] | % binding [3] | % binding [4]
His6-SUMO-INI1183-304 (from UniProt Q12824 183-304) | 3.5 nM | 3 nM | – | –
His6-IN(W235E) (enzyme) | – | – | < 5% | 20%
